25 sequences from a protein production outcome set (Wang et al. 2014) can be followed below.
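Further: failed if final PepcDB status was selected cloned or expressed and not failed if soluble or beyond.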

The data set is described as follows: label from the status in PepcDB records.
For “MKQEEDKFTGLPENAFRELKAGEVYNPLMSPSKNYPEVNFWSVTWGIAMAILFSAAAAYLGLKVGQVFEAAIPIAIIAVGVSGAAKRKNALGENVIIQSIGACSGVIVAGAIFTLPALYILQVKYPEMTVSFMQVFISSLLGGVLGILFLIPFRKYFVSDMHGKYPFPEATATTQVLVSGEKSGSQAKPLLMAGMIGGLYDFIVATFGWWNENFTTRVCGAGEMLAEKAKLVFKVNTGAAVLGLGYIVGLKYASIICAGSLAVWWIIIPGMSAIWGDSVLNAWNPEITSTVGMMSPEEIFKYYAKSIGIGGIAMAGVIGIIRSWGIIKSAVGLAAKEMGGKGNVEKNIVRTQRDLSMKIIAIGSILTLILIVLFFYFDIMQGNIVHTLVAIALVAGISFLFTTVAANAIAIVGTNPVSGMTLMTLILASVVMVAVGLKGPSGMVAALVMGGVVCTALSMAGGFITDLKIGYWLGSTPAKQETWKFLGTIVSAATVGGVMIILNKTYGFTSGALAAPQANAMAAVIEPLMSGVGAPWLLYGIGAILAIVLTFFKIPALAFALGMFIPLELNVPLVVGGAVNWYVTSRSKDTALNTERGEKGTLLASGFIAGGALMGVVSAAMRFGGINLVNEAWLNNTWSEVLALGAYALLILYFIKASMKVK”, the protein production entry is “failed”.

Regarding “MPESRVKSEPSPAPYWRRNVRLIVLLLACWAGLTFVPAYFARQLAFDFIGWPFSFWMAAYGAPLAYLILIVIYALVMNRFDARSRTRRDD”, the protein production result is recorded as “failed”.

Regarding “MSVSGPCLSCDTPGCTMQAHSDSDESFFERAWAVVAQIPVGRVTTYGDIAAHLGRRGAARIVGWALKDAVGGDLPCHRVVNRNGVLTGRRHFETPHVMAERLRSEGVTFVAEDQVDLDAHRWRPGEAE”, the protein production entry was “failed”.

As to “MAKSRLLLSELLDQLSFALCIVRNDYVIVKVNEYFESRVIFDGETMQGKNILELFPESADYLKRKIDTALVIESSSFSSWEQKPHLLPFKSSRPVSGEEEQMYQNLEVIPIHSED”, the protein production result is recorded as “failed”.

For the sequence “MTEKTIRVLVAGLGNMGRSHALAYHNNPGFEIVGLVNRSTPELAAELQGYTIHPDFMTALAELKPDLCSINTYSDSHADYAVAAFEAGCDVFVEKPLATTVADAERVVAAAGKAGRKLVIGYILRHHPSWMKLIGEARKLGPPYVFRMNLNQQSSGPTWATHKSLMRTTSPIVDCGVHYVDVMCQITDARAVEVRGMGLRMSDEIAADMYNYGHLQVLFEDGSVGWYEAGWGPMISETAFFVKDVMSPKGAVSIVMDPNAKSDDIDTHTKTSVIRLHTAETGPDGKFIRPDQDMTMEGEPGHQALCDLEQAFMLRAIREDLDLDRHMADAVASLRICLAADESVRTGQPVRL”, the protein production entry is given as “failed”.

With “MTERSFEGSAYSDYRSSHQKPGYGTDYAETFRSGYYAALWSRIERPLVEGILSPLGGPGRSCLDFACGTGRVAAVAGPLFGEVVGVDVSRSMLACARVPGNVKLVEADLTVAPLSRRFDVVTAFRFFLNAEDTLKRDALSAIHEHLNDGGLLVSNVHMNATSPMGLACRFLNRFQGRVVRSTLSIHAYRQMLVSNGFVVESVIGYGFLPRPGWLLPRLCETLVGPVETICRRAGVPGRFAQNFLVVARKQ”, the protein production entry is recorded as “failed”.

For “ASEGEKHITVTVIHGDQTENVFEFDTDAKYLGEVLESENLVDGESGEYGLFITTVDEETADDSKQQWWCITKGGEQVNTSADQTPVSDGDAFELTLKEGY”, the protein production result is “not failed”.

In the case of “MPKLSLIIATFNDAIGLARCLDSIEQQTVRADCEVLVFDNASSDGTVELLQGWSDRLTYWESERDRGIYHAWNKAIARASGDYVAFVGADDYYASPTALQQLLELTVGQPDLVSGRNAYYSPEGKFLRTWGYAWDWQRMRESMILSHPGLLMRRSLFDRIGLFDERFRICGDYDWLLRLPPDLKAVHTNQVILCLSMGGLSNTRISRVFAETFQAQRRQPDLGRWRSGVYWLINWLKFGRRKLIGLA”, the protein production entry is “failed”.

Take “EMGVAYLTEVVVNEVVEAHEVPEVQHALNINSSESLIHIVRTRRLNQHVKIVDEDYFLKSIVSDIGNDVASDSIYDYLEKVLNLNISYSSKSITFEPFDEQAYQLFGDVSVAYSATVRSIVYLENTMPFQYNISKHLANEFKFNDFSRRRIK”: the protein production entry is given as “failed”.

Regarding “MAHSGDNHSSEFCMLRSLSASIGADPLLVQGAGGNTSIKQAGVLWIKASGTWLKNARDDEIMVPVALAPLLDAVSHRSPAAEAAGQFTLADLNPRQLRPSIETTVHALLPQKIVVHVHCVETISIAVQANAEALLEGRLRGLDWAFVPYRRPGLPLAQAIAERLKPATNVLVLGNHGLVVAADTVAEAALLLQRVTGLLARQPRPAPPPDLDALLRLAAGSDYRLPASTAAHAVATDLASCRIAASGSLYPDHVIFLGVGSVIAGPGENAAAVVARTAAAPTSILFPGKGVLMRREANAGAEAMARCLADVVARVDGAARVNYLSPKENAELLNWDAEKYRQQLNREGATLQLEHHHHHH”, the protein production entry was “failed”.

Take “MKNRRTRWYRSLALRLLFIFWALLSVTAASGYLLAVWNKPKAELKPLEPEIYQTLQPLLSDALTFHSLQPGRLIAGDYRVAAQLSVQGSEKLLMDEMLRVSHGSTLLRMLGQESPQQIPLDERLLMGPFELDGNKILVTKPLGIEEQVDRERLEAESTRARILTLMVGSGLLAVLLGIWLIRPIRRMILAMREVADGSATPELKRLPKRGDEIGELARALSQGAVDLATSRDAQRRLLSDVSHELRSPMARMQVALDLADCNEDDPNWQQLRRDTERLSVIIERILSLSRLENGLVDLNHESLDSGELVQQLINDMCYQHPEVRERLLRHGSNWPVIDTDPELLRLVLENIVRNALHYTEDNVELSCDDYGKGCHIRIRDHGPGVDESTISKLFVPFYRGDPARHHKAGVGLGLALSHRAAAVLGGELKAHNHSEGGLEVVLDLPKSQPEQKE”: the protein production entry is reported as “failed”.

“MKQEETLTKVKVAEVTHSIFYAPLYVAESKGFFKEEGLDVDVNTTWGGDKTMTSLLSNGSDIALVGSETSIYVEAQGAKDPVINFAQLTQTDGTFLVAREDVEHFDWDQLKGKTFLGQRKGGMPQMVGEYVLNKHKIDPHKDIDLIQNIDFANIANAFASGTGEYVQLFEPQLLSLRKKASAISWLHSEKNQERFLIRLLWRNKAILEHHHHHH”: the protein production entry is on record as “failed”.

“AAKGNMQCNIFVPAGTSKGKTTQTRLYGANCIEVEGTREDVALAAIESSVTHGSHYVGHNWHPLFIEGVKSIAYEIWEQCGYKAPDNFVVPAGNGSLLAGAYIGFSELLKGGEISKLPRLFGIQSESIQPFVQTFNNKEINITSEDTIAEGIKIKRSSRMNEIVQFVKETNGNFISVNEQQIQSALKEMGAQGYFIEPTSATAFAGIAQLIKTQEIKPDELTVGVVTGNGLKATNSIEHLI”: the protein production result is listed as “failed”.

As to “LRGTHSQLRCVLNAATQVAIIATDLRGVISTFNAGAEQMLGYSSSEAVGHLTLESLHLPEELESWAQSLTQRYGKAIPVSQAMLVEEGMAGGHEAREWTLVRRDGSHLQVNMLATPVLDDQGLWIGHLAICIDITERKRVHEA”, the protein production entry is recorded as “failed”.

With “CFVTRIRLLDSNVIECTLSVESTGQECLEAVAQRLELRETHYFGLWFLSKSQQARWVELEKPLKKHLDKFANEPLLFFGVM”, the protein production entry is recorded as “failed”.

With “VSIPANNSPVRLALIGAGRWGKNYIRTIAGLPGAALVRLASSNPDNLALVPPGCVIESDWRSVVSAPEVEAVIIATPPATHAEITLAAIASGKAVLVEKPLTLDLAEAEAVAAAAKATGVMVWVEHTQLFNPAWEALKADLTSIGPILAVRSEAGNHGPYRPGGVPMLWDWGAHDVSMVLDLMGRDPDSTSASWAARGEKDGGEAGDVTLTLAFSTVEAHIRLCNTMDKCRRLAVFGEAGTLVMDDRATDKLTLHPPQPDGNWPVGQGHALTVTDEMPLTRAVRLFAGAVRQPEPGPSPLELGLRVVRVLGACS”, the protein production result is listed as “not failed”.

For “MNITLGYIDPVAFSLGPIQVRWYGIIIACGILLGYFIAQAALKQVGLHKDTLIDIIFYSAIVGFIVARIYFVTFQWPYYMNHLSEIPKIWHGGIAIHGGLIGGLISGIIVCKIKNLHPFQIGDIVAPSIILAQGIGRWGNFMNHEAHGGPVSRAFLEHLHLPDFIIRNMYIEGQYYHPTFLYESIWDVIGFVILITLRKRLKLGETFFGYLIWYSVGRFFVEAMRTDSLMLTSHIRVAQLVSVVLILISVIFVIYRRVKYQPIKYENSGPLTWPIKKAK”, the protein production entry was “failed”.

In the case of “MDEQVIFTTNTSGTIASVHSFEQINLRQCSTQSRNSCVQVGNKYLFIAQAQKALINVYNLSGSFKRESVEQRLPLPEILKCLEVVENDGVQYDRIQGVNHNLPDFNLPYLLLGSTESGKLYIWELNSGILLNVKPMAHYQSITKIKSILNGKYIITSGNDSRVIIWQTVDLVSASNDDPKPLCILHDHTLPVTDFQVSSSQGKFLSCTDTKLFTVSQDATIRCYDLSLIGSKKKQKANENDVSIGKTPVLLATFTTPYSIKSIVLDPADRACYIGTAEGCFSLNLFYKLKGNAIVNLLQSAGVNTVQKGRVFSLVQRNSLTGGENEDLDALYAMGQLVCENVLNSNVSCLEISMDGTLLLIGDTEGKVSIAEIYSKQIIRTIQTLTTSQDSVGEVTNLLTNPYRLERGNLLFEGESKGKQPSNNNGHNFMKIPNLQRVIFDGKNKGHLHDIWYQIGEPEAETDPNLALPLNDFNAYLEQVKTQESIFSHIGKVSSNVKVIDNKIDATSSLDSNAAKDEEITELKTNIEALTHAYKELRDMHEKLYEEHQQMLDKQ”, the protein production entry was “failed”.

As to “MNITLLKSKIHRASVTEARLDYIGSISIDEKLLQASGILEYEKVQVVNVNNGARFETYTIATQEEGVVCLNGAAARLAEVGDKVIIMSYADFNEEEAKTFKPKVVFVDENNTATKITNYEKHGAIF”, the protein production entry was “not failed”.

Turning to “MLLQKSKVLVLNASYEPLSICDARNAVLLLFCGKAMMVASHPEHRIRTVTENFPLPSIVRLMVYVRIDYRGAVLNRKNLFRRDGFRCQYCGCKDGSLTVDHVMPKSRGGEDTWENLITACKSCNTKKGNRTPSEAGMAMLNKPCRPSNITLMRQHYRSISDEWKPYLFMS”, the protein production entry is reported as “failed”.

“MGTSSDPIQDGSDEQQKRSEIYTYEAPWHIYAMNWSVRRDKKYRLAITSLLEQYPNRVEIVQLDESNGEIRSDPNLSFEHPYPPTKTIFIPDKECQRPDLLATSSDFLRLWRIADDHSRVELKSCLNSNKNSEFCGPLTSFDWNEAEPRRIGTSSTDTTCTIWDIEREAVDTQLIAHDKEVFDIAWGGVGVFASVSADGSVRVFDLRDKEHSTIIYESSEPDTPLVRLGWNKQDPRYMATIIMDSAKVVVLDIRFPALPVVELQRHQASVNAIAWAPHSSCHICTAGDDSQALIWDISSMGQHVEGGLDPILAYTAGAEIEQLQWSSSQPDWVAIAFSTKLQILRV”: the protein production result is on record as “failed”.

As for “MYSGAYSFVQISTAAYRISITRLEKTMESLQQQVAQLLEQQPTLLPAAMAEQLNVTEFDIVHALPEEMVAVVDGSHAQTILESLPEWGPVTTIMTIAGSIFEVKAPFPKGKVARGYYNLMGRDGELHGHLKLENISHVALVSKPFMGRESHYFGFFTAQGENAFKIYLGRDEKRELIPEQVARFKAMQQQHKQLEHHHHHH”, the protein production result was “not failed”.

For the sequence “MKLVNVTNSYKQLVNKQLENTDAYFVKVYSAGNTTAVYSEAAHHVEVLIMNKNRRIRPTEVKEILAKLLKRLPKEAYDPDEISIIELNHVTEVSVPLKVSLME”, the protein production entry is listed as “failed”.

As to “MSEALSDSGLPPVQRVVTGHDAHGRAVFKSEDVTPTRMIPSGDASFLLVWTTATVPADNNDETDGRQREAGLTLDGGSVIRVVDMLPGKESPMHRTNSIDYGIVLEGEIELELDDGAKRTVRQGGIIVQRGTNHLWRNTTDKPCRIAFILIEAPAYLHNGQPLPEDKPDHK”, the protein production result is “not failed”.

Turning to “MNYSRIAEAIEYIRAHYKEQPGLDEVAEKVHLSPFHFQRIFTEWAGISPKKFLQYISLEHHHHHH”, the protein production result was “failed”.
